What was measured:
APE1 (Homo sapiens) = APE1 (Homo sapiens) (UniProt P27695); experiment: fluorescence polarization; conditions: 5 nM DNA, no Mg2+ listed, THF at nt 15 of strand 1 (N), EMSA: 20 mM HEPES pH 7.9, 1 mM DTT, 30 mM NaCl, 0.03% NP-40, 10% glycerol, 1 ug poly(dI-dC), 20 min room temperature, FP: 10 mM HEPES pH 7.5, 50 mM KCl
EEPD1 (Homo sapiens) = target: T1, EEPD1 (Homo sapiens) (UniProt Q7L9B9); experiment: fluorescence polarization; conditions: 5 nM DNA, no Mg2+ listed, THF at nt 15 of strand 1 (N), EMSA: 20 mM HEPES pH 7.9, 1 mM DTT, 30 mM NaCl, 0.03% NP-40, 10% glycerol, 1 ug poly(dI-dC), 20 min room temperature, FP: 10 mM HEPES pH 7.5, 50 mM KCl
T1 sequence: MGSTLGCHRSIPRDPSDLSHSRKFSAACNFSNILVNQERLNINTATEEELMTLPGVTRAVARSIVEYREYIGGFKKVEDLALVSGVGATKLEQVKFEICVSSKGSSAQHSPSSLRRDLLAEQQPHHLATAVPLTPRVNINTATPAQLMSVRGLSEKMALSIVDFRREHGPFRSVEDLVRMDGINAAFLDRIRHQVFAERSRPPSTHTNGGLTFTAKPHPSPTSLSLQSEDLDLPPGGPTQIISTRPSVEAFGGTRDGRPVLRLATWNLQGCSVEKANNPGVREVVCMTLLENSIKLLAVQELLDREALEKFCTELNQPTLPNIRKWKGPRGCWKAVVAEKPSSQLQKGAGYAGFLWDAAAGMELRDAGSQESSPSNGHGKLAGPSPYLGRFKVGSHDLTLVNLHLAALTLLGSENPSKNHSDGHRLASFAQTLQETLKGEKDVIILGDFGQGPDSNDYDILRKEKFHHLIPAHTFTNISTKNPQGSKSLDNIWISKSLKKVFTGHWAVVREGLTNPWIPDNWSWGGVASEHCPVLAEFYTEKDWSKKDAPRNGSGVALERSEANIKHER

EEPD1 = target: T2, EEPD1 (Homo sapiens, UniProt Q7L9B9 1-569); experiment: EMSA; 1 ug poly(dI-dC); less than THF fork; EMSA: 20 mM HEPES pH 7.9, 1 mM DTT, 30 mM NaCl, 0.03% NP-40, 10% glycerol, 1 ug poly(dI-dC), 20 min room temperature; FP: 10 mM HEPES pH 7.5, 50 mM KCl, 5 nM DNA, 0-1000 nM protein; conditions: protein: recombinant; tags: FLAG; label: 32P 5'-end; fork 1:2 1:3 2:4
T2 sequence: T1 sequence

Sequence of APE1 (Homo sapiens) (P27695 whole entry): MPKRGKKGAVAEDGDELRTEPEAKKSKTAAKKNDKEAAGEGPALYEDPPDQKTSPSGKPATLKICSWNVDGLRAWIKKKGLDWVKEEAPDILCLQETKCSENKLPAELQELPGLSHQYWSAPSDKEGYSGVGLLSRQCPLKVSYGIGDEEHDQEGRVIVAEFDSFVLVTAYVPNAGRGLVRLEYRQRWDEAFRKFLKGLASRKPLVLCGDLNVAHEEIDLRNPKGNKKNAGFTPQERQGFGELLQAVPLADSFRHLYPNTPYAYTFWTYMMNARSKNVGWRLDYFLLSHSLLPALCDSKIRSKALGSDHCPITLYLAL

CATGCAGCTGATGCNTACAACACACTGTG / TTTTCCCCCCCCCCCGCATCAGCTGCATG / CACAGTGTGTTGTA / GGGGGGGGGGAAAA
Kd (APE1 (Homo sapiens)): 21 nM | Kd (EEPD1 (Homo sapiens)): 81 nM

B1: fork DNA without abasic site (Oligos D, F, G, H) (structured_DNA)
DNA 1: CATGCAGCTGATGCGTACAACACACTGTG
DNA 2: TTTTCCCCCCCCCCCGCATCAGCTGCATG
DNA 3: CACAGTGTGTTGTA
DNA 4: GGGGGGGGGGAAAA
binding result (EEPD1): binds
